From US20050008615A1 (GlaxoSmithKline, published 2005)
Residue numbers refer to the chain shown, from its start. Numbers in names are those of the source. Where “and” joins values, the source holds several entries; their conditions need not be identical. Identical values can stand only once.

T1: IL-18 receptor alpha chain (UniProt Q13478 19-329, limits assumed)
T1 construct: also called IL-18Rα; IL-18 Rα
T1 sequence (looked up): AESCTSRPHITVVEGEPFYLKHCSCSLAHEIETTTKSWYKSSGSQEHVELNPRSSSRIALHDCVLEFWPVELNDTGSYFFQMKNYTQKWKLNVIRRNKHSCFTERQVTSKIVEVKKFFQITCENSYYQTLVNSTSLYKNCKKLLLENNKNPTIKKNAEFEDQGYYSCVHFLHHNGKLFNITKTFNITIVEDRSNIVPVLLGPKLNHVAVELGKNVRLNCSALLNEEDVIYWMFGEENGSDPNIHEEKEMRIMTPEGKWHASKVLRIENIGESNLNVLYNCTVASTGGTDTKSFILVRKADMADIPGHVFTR

B1: human IL-18 C38S, C68D, D157C (SEQ ID NO:8) (ligand)
chain: YFGKLESKLSVIRNLNDQVLFIDQGNRPLFEDMTDSDSRDNAPRTIFIISMYKDSQPRGMAVTISVKDEKISTLSCENKIISFKEMNPPDNIKDTKSDIIFFQRSVPGHDNKMQFESSSYEGYFLACEKERDLFKLILKKEDELGDRSIMFTVQNEC
notes: Non-pegylated substitution mutant; also called IL-18 C157 (C38S, C68D, D157C)
B2: human IL-18 C38S, C68D, L144C (SEQ ID NO:7) (ligand)
chain: B1 chain with L144C, C157D
notes: Non-pegylated substitution mutant; also called IL-18 C144 (C38S, C68D, L144C)
B3: human IL-18 C38S, C68D, D157C (SEQ ID NO:8) monopegylated at C157 with 20K PEG (ligand)
chain: B1 chain
modifications: methoxy polyethylene glycol maleimide, 20,000 Da, on Cys 157
notes: also called IL-18 C157PEG20K; 157C-20K
B4: human IL-18 C38S, C68D, D157C (SEQ ID NO:8) monopegylated at C157 with 30K PEG (ligand)
chain: B1 chain
modifications: methoxy polyethylene glycol maleimide, 30,000 Da, on Cys 157
notes: also called IL-18 C157PEG30K; 157C-30K
B5: human IL-18 C38S, C68D, D157C (SEQ ID NO:8) monopegylated at C157 with 40K PEG (ligand)
chain: B1 chain
modifications: methoxy polyethylene glycol maleimide, 40,000 Da, on Cys 157
notes: also called IL-18 C157PEG40K; 157C-40K
B6: human IL-18 C38S, C68D, L144C (SEQ ID NO:7) monopegylated at C144 with 20K PEG (ligand)
chain: B1 chain with L144C, C157D
modifications: methoxy polyethylene glycol maleimide, 20,000 Da, on Cys 144
notes: also called IL-18 C144PEG20K
B7: human IL-18 C38S, C68D, L144C (SEQ ID NO:7) monopegylated at C144 with 30K PEG (ligand)
chain: B1 chain with L144C, C157D
modifications: methoxy polyethylene glycol maleimide, 30,000 Da, on Cys 144
notes: also called IL-18 C144PEG30K
B8: human IL-18 C38S, C68D, L144C (SEQ ID NO:7) monopegylated at C144 with 40K PEG (ligand)
chain: B1 chain with L144C, C157D
modifications: methoxy polyethylene glycol maleimide, 40,000 Da, on Cys 144
notes: also called IL-18 C144PEG40K
B9: human IL-18 C38S, C68S, D157C (SEQ ID NO:10) (ligand)
chain: B1 chain with D68S
notes: Non-pegylated substitution mutant; also called IL-18 C157 (C38S, C68S, D157C)
B10: human IL-18 C38S, C68S, D157C (SEQ ID NO:10) monopegylated at C157 with 20K PEG (ligand)
chain: B1 chain with D68S
modifications: methoxy polyethylene glycol maleimide, 20,000 Da, on Cys 157
notes: as for B3
B11: human IL-18 C38S, C68S, D157C (SEQ ID NO:10) monopegylated at C157 with 30K PEG (ligand)
chain: B1 chain with D68S
modifications: methoxy polyethylene glycol maleimide, 30,000 Da, on Cys 157
notes: as for B4
B12: human IL-18 C38S, C68S, L144C (SEQ ID NO:9) (ligand)
chain: B1 chain with D68S, L144C, C157D
notes: Non-pegylated substitution mutant; also called IL-18 C144 (C38S, C68S, L144C)
B13: human IL-18 C38S, C68S, L144C (SEQ ID NO:9) monopegylated at C144 with 20K PEG (ligand)
chain: B1 chain with D68S, L144C, C157D
modifications: methoxy polyethylene glycol maleimide, 20,000 Da, on Cys 144
notes: also called IL-18 C144PEG20K
B14: human IL-18 C38S, C68S, L144C (SEQ ID NO:9) monopegylated at C144 with 30K PEG (ligand)
chain: B1 chain with D68S, L144C, C157D
modifications: methoxy polyethylene glycol maleimide, 30,000 Da, on Cys 144
notes: also called IL-18 C144PEG30K

The binders below were run against T2, IL-18 receptor (heterodimeric surface receptor composed of α- and β-chains) on KG-1 cells (assay: cell-based or functional assay).
B1 was tested, and the “NF-κB bioassay, reduction in potency relative to the native IL-18” value was ~10 fold.
In the case of B2, the “NF-κB bioassay, reduction in potency relative to the native IL-18” value is reported as ~10 fold.

Biological target: T2, IL-18 receptor (heterodimeric surface …)
Assay: cell-based or functional assay
Remark: another data set of the same source
With B1 the “NF-κB KG-1 EC50” value was 0.004 µg/mL and the “NF-κB KG-1 EC50 (ng/ml), av.” value was 4 ng/mL.
B3 was tested, and the “NF-κB KG-1 EC50 (ng/ml), av.” value was 37.3 ng/mL.
With B4 the “NF-κB KG-1 EC50” value was 0.094 µg/mL and 0.043 µg/mL and the “NF-κB KG-1 EC50 (ng/ml), av.” value was 68.5 ng/mL.
With B5 the “NF-κB KG-1 EC50 (ng/ml), av.” value was 278 ng/mL.
B2 was tested, and the “NF-κB KG-1 EC50” value was 0.0035 µg/mL and 0.0016 µg/mL and the “NF-κB KG-1 EC50 (ng/ml), av.” value was 2.6 ng/mL.
In the case of B6, the “NF-κB KG-1 EC50” value is reported as 0.058 µg/mL and 0.066 µg/mL and 0.042 µg/mL and the “NF-κB KG-1 EC50 (ng/ml), av.” value is reported as 55.3 ng/mL.
In the case of B7, the “NF-κB KG-1 EC50” value is reported as 0.038 µg/mL and the “NF-κB KG-1 EC50 (ng/ml), av.” value is reported as 38 ng/mL.
With B8 the “NF-κB KG-1 EC50” value was 0.271 µg/mL and 0.33 µg/mL and the “NF-κB KG-1 EC50 (ng/ml), av.” value was 300 ng/mL.
With B9 the “NF-κB KG-1 EC50 (ng/ml), av.” value was 2 ng/mL.
With B10 the “NF-κB KG-1 EC50” value was 0.049 µg/mL and 0.059 µg/mL and the “NF-κB KG-1 EC50 (ng/ml), av.” value was 54 ng/mL.
In the case of B11, the “NF-κB KG-1 EC50” value is reported as 0.047 µg/mL and the “NF-κB KG-1 EC50 (ng/ml), av.” value is reported as 47 ng/mL.
For B12, the “NF-κB KG-1 EC50 (ng/ml), av.” value was 2.6 ng/mL.
In the case of B13, the “NF-κB KG-1 EC50” value is reported as 0.071 µg/mL and 0.092 µg/mL and the “NF-κB KG-1 EC50 (ng/ml), av.” value is reported as 81.5 ng/mL.
For B14, the “NF-κB KG-1 EC50” value was 0.044 µg/mL and the “NF-κB KG-1 EC50 (ng/ml), av.” value was 44 ng/mL.

What follows are binders tested against T1, IL-18 receptor alpha chain (assay: SPR (BIAcore)).
Work on B1 yielded a Kd of 0.196 µM.
With B3 the Kd was 5.16 µM.
Binder B4 has a Kd of 5.33 µM.
With B5 the Kd was 22.9 µM.
B2 gave a Kd of 0.222 µM.
Binder B6 has a Kd of 2.69 µM.
With B7 the Kd was 4.26 µM.
For B8, the Kd was 5.35 µM.
With B9 the Kd was 0.41 µM.
B10 was tested, and the Kd was 5.5 µM.
Binder B11 has a Kd of 6.34 µM.
In the case of B12, the Kd is reported as 0.534 µM.
B13 was tested, and the Kd was 5.19 µM.
Work on B14 yielded a Kd of 8.26 µM.
